Read-outs that look alike come from different tables or passages of the source.
B1: composite human mAb VH2/Vκ2 (antibody, V domains shown)
VH: QVQLVQSGSELKKPGASVKLSCKASGYTFTRYWMHWVKQAPGQGLEWIGNIYPDSDSTNYDEKFRTRATLTADTSTSTAYMELSSLRSEDTAVYYCTRMGFYAMDYWGQGTTVTVSS
VL: NIVMTQSPSSLSASVGDRVTITCKASENVVTYVSWFQQKPGQAPKLLIYGASNRYTGVPDRFSGSGSATDFTLTISSLQAEDVADYHCGQSYSYPLTFGQGTKLEIKR
notes: Human IgG4 (S241P hinge mutant) heavy chain and human kappa light chain
B2: composite human mAb VH3/Vκ2 (antibody, V domains shown)
VH: QVQLVQSGSELKKPGASVKLSCKASGYTFTRYWMHWVRQAPGQGLEWIGNIYPDSDSTNYDEKFRTRVTLTADTSTSTAYMELSSLRSEDTAVYYCTRMGFYAMDYWGQGTTVTVSS
VL: NIVMTQSPSSLSASVGDRVTITCKASENVVTYVSWFQQKPGQAPKLLIYGASNRYTGVPDRFSGSGSATDFTLTISSLQAEDVADYHCGQSYSYPLTFGQGTKLEIKR
notes: as for B1
B3: composite human mAb VH3/Vκ4 (antibody, V domains shown)
VH: QVQLVQSGSELKKPGASVKLSCKASGYTFTRYWMHWVRQAPGQGLEWIGNIYPDSDSTNYDEKFRTRVTLTADTSTSTAYMELSSLRSEDTAVYYCTRMGFYAMDYWGQGTTVTVSS
VL: DIVMTQSPSSLSASVGDRVTITCKASENVVTYVSWFQQKPGQAPKLLIYGASNRYTGVPDRFSGSGSGTDFTLTISSLQAEDVATYHCGQSYSYPLTFGQGTKLEIKR
notes: as for B1
B4: composite human mAb VH3/Vκ3 (antibody, V domains shown)
VH: QVQLVQSGSELKKPGASVKLSCKASGYTFTRYWMHWVRQAPGQGLEWIGNIYPDSDSTNYDEKFRTRVTLTADTSTSTAYMELSSLRSEDTAVYYCTRMGFYAMDYWGQGTTVTVSS
VL: DIVMTQSPSSLSASVGDRVTITCKASENVVTYVSWFQQKPGQAPKLLIYGASNRYTGVPDRFSGSGSGTDFTLTISSLQAEDVADYHCGQSYSYPLTFGQGTKLEIKR
notes: as for B1
B5: composite human mAb VH1/Vκ2 (antibody, V domains shown)
VH: QVQLVQSGSELKKPGASVKLSCKASGYTFTRYWMHWVKQAHGQGLEWIGNIYPDSDSTNYDEKFRTRATLTADTSTSTAYMHLSSLTSEDSAVYYCTRMGFYAMDYWGQGTSVTVSS
VL: NIVMTQSPSSLSASVGDRVTITCKASENVVTYVSWFQQKPGQAPKLLIYGASNRYTGVPDRFSGSGSATDFTLTISSLQAEDVADYHCGQSYSYPLTFGQGTKLEIKR
notes: as for B1
B6: composite human mAb VH2/Vκ4 (antibody, V domains shown)
VH: QVQLVQSGSELKKPGASVKLSCKASGYTFTRYWMHWVKQAPGQGLEWIGNIYPDSDSTNYDEKFRTRATLTADTSTSTAYMELSSLRSEDTAVYYCTRMGFYAMDYWGQGTTVTVSS
VL: DIVMTQSPSSLSASVGDRVTITCKASENVVTYVSWFQQKPGQAPKLLIYGASNRYTGVPDRFSGSGSGTDFTLTISSLQAEDVATYHCGQSYSYPLTFGQGTKLEIKR
notes: as for B1
B7: composite human mAb VH1/Vκ1 (antibody, V domains shown)
VH: QVQLVQSGSELKKPGASVKLSCKASGYTFTRYWMHWVKQAHGQGLEWIGNIYPDSDSTNYDEKFRTRATLTADTSTSTAYMHLSSLTSEDSAVYYCTRMGFYAMDYWGQGTSVTVSS
VL: NIVMTQSPSSLSASVGDRVTITCKASENVVTYVSWFQQKPGQAPKLLIYGASNRYTGVPDRFTGSGSATDFTLTISSLQAEDVADYHCGQSYSYPLTFGQGTKLEIKR
notes: as for B1
B8: composite human mAb VH2/Vκ3 (antibody, V domains shown)
VH: QVQLVQSGSELKKPGASVKLSCKASGYTFTRYWMHWVKQAPGQGLEWIGNIYPDSDSTNYDEKFRTRATLTADTSTSTAYMELSSLRSEDTAVYYCTRMGFYAMDYWGQGTTVTVSS
VL: DIVMTQSPSSLSASVGDRVTITCKASENVVTYVSWFQQKPGQAPKLLIYGASNRYTGVPDRFSGSGSGTDFTLTISSLQAEDVADYHCGQSYSYPLTFGQGTKLEIKR
notes: as for B1
B9: composite human mAb VH1/Vκ3 (antibody, V domains shown)
VH: QVQLVQSGSELKKPGASVKLSCKASGYTFTRYWMHWVKQAHGQGLEWIGNIYPDSDSTNYDEKFRTRATLTADTSTSTAYMHLSSLTSEDSAVYYCTRMGFYAMDYWGQGTSVTVSS
VL: DIVMTQSPSSLSASVGDRVTITCKASENVVTYVSWFQQKPGQAPKLLIYGASNRYTGVPDRFSGSGSGTDFTLTISSLQAEDVADYHCGQSYSYPLTFGQGTKLEIKR
notes: as for B1
B10: composite human mAb VH2/Vκ1 (antibody, V domains shown)
VH: QVQLVQSGSELKKPGASVKLSCKASGYTFTRYWMHWVKQAPGQGLEWIGNIYPDSDSTNYDEKFRTRATLTADTSTSTAYMELSSLRSEDTAVYYCTRMGFYAMDYWGQGTTVTVSS
VL: NIVMTQSPSSLSASVGDRVTITCKASENVVTYVSWFQQKPGQAPKLLIYGASNRYTGVPDRFTGSGSATDFTLTISSLQAEDVADYHCGQSYSYPLTFGQGTKLEIKR
notes: as for B1
B11: composite human mAb VH1/Vκ4 (antibody, V domains shown)
VH: QVQLVQSGSELKKPGASVKLSCKASGYTFTRYWMHWVKQAHGQGLEWIGNIYPDSDSTNYDEKFRTRATLTADTSTSTAYMHLSSLTSEDSAVYYCTRMGFYAMDYWGQGTSVTVSS
VL: DIVMTQSPSSLSASVGDRVTITCKASENVVTYVSWFQQKPGQAPKLLIYGASNRYTGVPDRFSGSGSGTDFTLTISSLQAEDVATYHCGQSYSYPLTFGQGTKLEIKR
notes: as for B1
B12: composite human mAb VH3/Vκ1 (antibody, V domains shown)
VH: QVQLVQSGSELKKPGASVKLSCKASGYTFTRYWMHWVRQAPGQGLEWIGNIYPDSDSTNYDEKFRTRVTLTADTSTSTAYMELSSLRSEDTAVYYCTRMGFYAMDYWGQGTTVTVSS
VL: NIVMTQSPSSLSASVGDRVTITCKASENVVTYVSWFQQKPGQAPKLLIYGASNRYTGVPDRFTGSGSATDFTLTISSLQAEDVADYHCGQSYSYPLTFGQGTKLEIKR
notes: as for B1
B13: mouse mAb anti-FXI 34.2 (antibody, V domains shown)
VH: QVQLQQPGSELVRPGASVKLSCKASGYTFTRYWMHWVKQRHGQGLEWIGNIYPDSDSTNYDEKFRTKATLTADTSSSTAYMHLSSLTSEDSAVYYCTRMGFYAMDYWGQGTSVTVSS
VL: NIVMTQSPKSMSMSVGERVTLSCKASENVVTYVSWFQHKPEQSPKLLIYGASNRYTGVPDRFTGSGSATDFTLTISSVQAEDLADYHCGQSYSYPLTFGAGTKLELKR
notes: Mouse IgG purified from hybridoma supernatant by protein G

Tests used:
[1] = biological target: T1, human coagulation factor XI (FXI) (human, UniProt P03951 19-625); experiment: cell-based or functional assay
[2] = biological target: T1, human coagulation factor XI (FXI); experiment: SPR (Biacore), FXI immobilized on CM5 chip, mAb as analyte
Experimental: (§1) Surface plasmon resonance was on a Biacore 2000 (GE Healthcare) equipped with a research-grade cm5 sensor chip to assess the affinity constants of the mAbs for FXI. Factor XI was immobilized using amine-coupling chemistry. the surface was activated for 7 min with a 1:1 mixture of 0.1 M N-hydroxysuccinimide and 0.1 M 3-(N,N-dimethylamino) propyl-N-ethylcarbodiimide at a flow rate of 10 l per min. The ligand at a concentration of 10 μg/ml in 10 mM sodium acetate, pH 5.5, was immobilized at a density of 1000 ru. An untreated flow cell served as a reference surface. All the surfaces were blocked with a 7 min injection of 1 M ethanolamine, pH 8.0. The following protocol was used to assess kinetic binding of the mAbs to FXI. […] The complex was allowed to associate and dissociate for 360 and 600 seconds, respectively. The surfaces were regenerated with a 10 seconds injection of 50 mM NaOH. Triplicate injections (in random order) of each sample and a buffer blank were flowed over the two surfaces. Data were collected at a rate of 1 Hz. The data were fit to a simple 1:1 interaction model using the global data analysis option available within BiaEvaluation 4.1 software.

[3] = biological target: T1, human coagulation factor XI (FXI); experiment: competition ELISA on coated human FXI; competitor biotinylated murine mAb anti-FXI 34.2
Text: The binding of the biotinylated antibody was detected with streptavidin-HRP (Sigma) and OPD substrate (Sigma. The reaction was stopped with 3M HCl, absorbance read at 490 nm on a Dynex Technologies MRX TC II plate reader and the binding curves plotted.

[4] = biological target: T1, human coagulation factor XI (FXI); experiment: SPR (Biacore), FXI immobilized on CM5 chip, mAb as analyte; remark: listed apart in the source
Experimental: as §1

Binder | APTT (% NPP) [1] [% NPP] | Kd [2] [nM] | Relative IC50 [3] | Kd [4] [nM]
B1 | 243 | 0.88 | 0.92 relative to IC50 of mouse-human chimeric mAb anti-FXI 34.2 | 
B2 | 255 | 0.079 | 0.87 relative to IC50 of mouse-human chimeric mAb anti-FXI 34.2 | 
B3 | 255 | 0.42 | 1.13 relative to IC50 of mouse-human chimeric mAb anti-FXI 34.2 | 
B4 | 256 | 0.081 | 0.99 relative to IC50 of mouse-human chimeric mAb anti-FXI 34.2 | 
B5 | 248 | 0.25 | 0.69 relative to IC50 of mouse-human chimeric mAb anti-FXI 34.2 | 
B6 | 259 | 0.062 | 0.98 relative to IC50 of mouse-human chimeric mAb anti-FXI 34.2 | 
B7 | 253 | 0.12 | 0.75 relative to IC50 of mouse-human chimeric mAb anti-FXI 34.2 | 
B8 | 247 | 0.51 | 0.93 relative to IC50 of mouse-human chimeric mAb anti-FXI 34.2 | 
B9 | 257 | 0.17 | 0.91 relative to IC50 of mouse-human chimeric mAb anti-FXI 34.2 | 
B10 | 252 | 0.24 | 0.84 relative to IC50 of mouse-human chimeric mAb anti-FXI 34.2 | 
B11 | 260 | 0.35 | 0.89 relative to IC50 of mouse-human chimeric mAb anti-FXI 34.2 | 
B12 | 250 | 0.13 | 0.87 relative to IC50 of mouse-human chimeric mAb anti-FXI 34.2 | 
B13 |  |  |  | 0.2

Source: patent US20190106509A1 (PROTHIX B V, published 2019)
